Test results taken from paper PMC3634029 (PLoS ONE, 2013).

Target: T1, Full-length recombinant FVIII (Kogenate FS) (Homo sapiens, UniProt P00451)
T1 construct: coagulation factor VIII, human, full-length recombinant (Kogenate FS); also called coagulation factor VIII; source: provided by Bayer Healthcare (Kogenate FS), reconstituted and dialyzed into Borate Buffer
Assay: ELISA; FVIII (6.6 nM in PBS) coated; Bo2C11 serially diluted 1:3 from 60 nM; detected by anti-human IgG
Settings: both partners purified

T1 sequence (P00451 20-2351): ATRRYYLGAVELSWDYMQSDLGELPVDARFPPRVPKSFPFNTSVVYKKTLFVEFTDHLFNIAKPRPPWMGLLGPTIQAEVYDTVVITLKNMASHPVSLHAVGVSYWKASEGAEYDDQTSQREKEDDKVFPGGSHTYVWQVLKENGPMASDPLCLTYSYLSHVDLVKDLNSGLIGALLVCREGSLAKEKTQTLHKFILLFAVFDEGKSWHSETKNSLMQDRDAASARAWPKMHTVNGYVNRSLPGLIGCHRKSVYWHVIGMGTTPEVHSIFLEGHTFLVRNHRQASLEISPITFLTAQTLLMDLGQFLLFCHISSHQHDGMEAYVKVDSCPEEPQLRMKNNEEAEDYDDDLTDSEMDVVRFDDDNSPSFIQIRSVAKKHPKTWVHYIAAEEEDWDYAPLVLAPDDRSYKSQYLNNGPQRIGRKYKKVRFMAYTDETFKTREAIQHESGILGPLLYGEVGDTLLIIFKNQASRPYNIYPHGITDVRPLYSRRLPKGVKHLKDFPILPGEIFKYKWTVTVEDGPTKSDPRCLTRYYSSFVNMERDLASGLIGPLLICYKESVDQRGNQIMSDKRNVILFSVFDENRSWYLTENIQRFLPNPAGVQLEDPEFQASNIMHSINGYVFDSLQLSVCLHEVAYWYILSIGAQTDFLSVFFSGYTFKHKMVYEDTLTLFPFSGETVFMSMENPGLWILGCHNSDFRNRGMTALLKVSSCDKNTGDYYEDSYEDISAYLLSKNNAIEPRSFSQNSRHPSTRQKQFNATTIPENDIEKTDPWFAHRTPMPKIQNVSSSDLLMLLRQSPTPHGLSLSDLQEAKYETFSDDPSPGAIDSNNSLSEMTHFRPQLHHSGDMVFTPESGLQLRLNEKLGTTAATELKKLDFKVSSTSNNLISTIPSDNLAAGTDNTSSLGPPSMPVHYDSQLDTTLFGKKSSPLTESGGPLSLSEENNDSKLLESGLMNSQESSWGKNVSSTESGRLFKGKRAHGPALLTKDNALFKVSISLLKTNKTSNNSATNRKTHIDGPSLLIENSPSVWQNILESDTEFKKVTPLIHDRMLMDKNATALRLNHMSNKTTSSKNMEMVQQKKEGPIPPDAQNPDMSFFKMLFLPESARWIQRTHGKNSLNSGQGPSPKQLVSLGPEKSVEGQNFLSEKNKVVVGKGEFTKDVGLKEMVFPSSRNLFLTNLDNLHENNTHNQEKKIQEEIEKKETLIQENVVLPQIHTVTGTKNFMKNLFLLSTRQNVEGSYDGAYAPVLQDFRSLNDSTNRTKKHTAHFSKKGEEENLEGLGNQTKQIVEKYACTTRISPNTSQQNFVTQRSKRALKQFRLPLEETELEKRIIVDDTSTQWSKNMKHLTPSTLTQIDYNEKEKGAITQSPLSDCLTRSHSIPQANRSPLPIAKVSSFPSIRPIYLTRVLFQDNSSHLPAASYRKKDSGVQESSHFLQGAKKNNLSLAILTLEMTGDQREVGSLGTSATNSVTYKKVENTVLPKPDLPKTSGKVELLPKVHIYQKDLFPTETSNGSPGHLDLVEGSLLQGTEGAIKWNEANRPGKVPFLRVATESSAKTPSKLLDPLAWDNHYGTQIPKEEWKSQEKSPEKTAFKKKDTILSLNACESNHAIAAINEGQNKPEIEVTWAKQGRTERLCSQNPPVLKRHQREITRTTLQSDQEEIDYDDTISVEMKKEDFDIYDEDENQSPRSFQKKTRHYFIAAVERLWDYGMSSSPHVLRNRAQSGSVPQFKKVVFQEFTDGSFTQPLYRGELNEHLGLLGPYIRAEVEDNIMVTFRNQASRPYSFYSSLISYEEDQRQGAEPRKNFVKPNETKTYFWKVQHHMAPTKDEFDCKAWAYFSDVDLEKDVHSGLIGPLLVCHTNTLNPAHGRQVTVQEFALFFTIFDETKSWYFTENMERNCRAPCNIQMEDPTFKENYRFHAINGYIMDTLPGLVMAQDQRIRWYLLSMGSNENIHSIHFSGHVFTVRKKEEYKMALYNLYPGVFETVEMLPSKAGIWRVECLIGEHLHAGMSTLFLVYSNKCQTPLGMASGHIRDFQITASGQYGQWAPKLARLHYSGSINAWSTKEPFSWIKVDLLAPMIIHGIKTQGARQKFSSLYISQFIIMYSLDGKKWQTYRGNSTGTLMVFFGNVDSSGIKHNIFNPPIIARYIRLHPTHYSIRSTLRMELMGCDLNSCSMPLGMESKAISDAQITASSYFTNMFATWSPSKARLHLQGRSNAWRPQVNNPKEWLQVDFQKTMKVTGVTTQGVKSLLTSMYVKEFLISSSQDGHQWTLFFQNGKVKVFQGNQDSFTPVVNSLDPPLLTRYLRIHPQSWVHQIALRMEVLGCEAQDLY

EC50: 2.66 nM
B1: human monoclonal anti-FVIII antibody Bo2C11 (antibody, V domains shown)
VH: QVQLVQSGAEVKKPGASVKVSCKVSGYTLTELPVHWVGQAPGKGLEWVGSFDPESGESIYAREFQGSVTMTADTSTDIAYMELSSLRSDDTAVYYCAVPDPDAFDIWGQGTMVTVSS
VL: EIALTQSPGTLSLSPGERATLSCRASQSFSSSYLAWYQQKPGQAPRLLIYGASTRATGIPDRFSGSGSGTDFTLTISRLEPEDFAVYYCQKYGTSAITFGQGTRLEIK
